First the molecules themselves.
B2: recombinant 6×His-tagged Hub1 (natural protein, S. cerevisiae)
chain: MIEVVVNDRLGKKVRVKCLAEDSVGDFKKVLSLQIGTQPNKIVLQKGGSVLKDHISLEDYEVHDQTNLELYYL

Assay [1] addresses B2. Briefly: NMR titration.
Assay [2] concerns the target T1, full-length Snu66 (recombinant) (S. cerevisiae, UniProt Q12420 1-587).
T1 sequence (looked up): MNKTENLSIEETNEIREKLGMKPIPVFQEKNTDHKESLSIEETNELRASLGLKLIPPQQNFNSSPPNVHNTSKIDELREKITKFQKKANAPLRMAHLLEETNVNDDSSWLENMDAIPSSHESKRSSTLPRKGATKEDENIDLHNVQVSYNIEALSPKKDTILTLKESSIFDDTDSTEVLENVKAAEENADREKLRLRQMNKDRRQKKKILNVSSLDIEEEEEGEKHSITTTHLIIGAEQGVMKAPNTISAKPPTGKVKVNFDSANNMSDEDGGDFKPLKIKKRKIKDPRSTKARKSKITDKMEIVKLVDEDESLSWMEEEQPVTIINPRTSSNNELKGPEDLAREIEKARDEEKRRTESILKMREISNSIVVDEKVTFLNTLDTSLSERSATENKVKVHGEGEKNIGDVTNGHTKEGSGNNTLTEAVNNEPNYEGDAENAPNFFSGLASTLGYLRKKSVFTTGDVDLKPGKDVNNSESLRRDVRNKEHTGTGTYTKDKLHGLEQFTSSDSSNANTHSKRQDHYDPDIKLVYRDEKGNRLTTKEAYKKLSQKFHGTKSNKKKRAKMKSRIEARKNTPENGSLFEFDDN
Kind of assay: ITC. Background: In ITC the heat of successive injections is recorded.

B1: N-terminal 65-amino-acid fragment of Snu66 (domain or fragment, S. cerevisiae, UniProt Q12420 1-65, looked up)
chain: MNKTENLSIEETNEIREKLGMKPIPVFQEKNTDHKESLSIEETNELRASLGLKLIPPQQNFNSSP
On to B1, for which, in assay [1], the binding result is “binds”.

As usually defined, the Kd is the concentration at which binding is half-saturated. As for B2, the Kd in assay [2] stood at 590 ± 70 nM.

Source of the values: paper PMC3587138 (Nature, 2011).
